Legend:
Conditions in all cases: both partners purified
[1] = target: Recombinant hemagglutinin of H14N6 A/long-tailed duck/Wisconsin/10OS3912/2010, ectodomain, monomeric (Influenza A virus A/long-tailed …, UniProt G5DSS3, strain); assay: SPR
[2] = target: Recombinant hemagglutinin of H10N8 A/Jiangxi-Donghu/346/2013, ectodomain, monomeric (Influenza A virus …, strain); assay: SPR
[3] = target: Recombinant hemagglutinin of H7N9 A/Anhui/1/2013, ectodomain (Influenza A virus A/Anhui/1/2013 …, UniProt A0A024E3P0, strain); assay: SPR
[4] = target: Recombinant hemagglutinin of H3N2 A/Aichi/2/1968, ectodomain, monomeric (Influenza A virus A/Aichi/2/1968 (H3N2), strain); assay: SPR
[5] = target: Recombinant hemagglutinin of H4N6 A/duck/Czech/1956, ectodomain, monomeric (Influenza A virus A/duck/Czech/1956 …, strain); assay: SPR
[6] = target: Recombinant hemagglutinin of H15N8 A/duck/Australia/341/1983, ectodomain, monomeric (Influenza A virus …, UniProt Q82565, strain); assay: SPR
H3 HA (strain not given) [7] = target: T1, H3 HA (strain not given) (Influenza A virus A/Aichi/2/1968 (H3N2)); assay: ELISA
[8] = target: H14 HA (H14N6 A/long-tailed duck/Wisconsin/10OS3912/2010) (Influenza A virus A/long-tailed …, UniProt G5DSS3); assay: SPR
H3 HA (strain not given) [9] = target: T1, H3 HA (strain not given); assay: SPR

B1: AF4H1K1 Fab (Fab, V domains shown)
VH: QVQLVESGGGVVQPGTSLRLSCEASGFTSSAYAMHWVRQAPGKGLEWVAVITFDGGYQYYADSVKGRFTISRDISRNTLHLHMNSLRAEDTAVYYCARDPLTKLLPFDWVSGGYFDYWGQGTLVTVSS
VL: not shown
notes: also called H1 paired with K1
- Kd [1]: 16 nM
- Kd [2]: 21 nM
- Kd [3]: 14 nM
- Kd [4]: 0.79 nM
- Kd [5]: 9 nM

B2: AF4H1/FI6v3L Fab (Fab, V domains shown)
VH: QVQLVESGGGVVQPGTSLRLSCEASGFTSSAYAMHWVRQAPGKGLEWVAVITFDGGYQYYADSVKGRFTISRDISRNTLHLHMNSLRAEDTAVYYCARDPLTKLLPFDWVSGGYFDYWGQGTLVTVSS
VL: not shown
notes: also called AF4H1/FI6L; hybrid MAb with heavy chain from AF4H1K1 and light chain from FI6v3
- Kd [1]: 15.9 nM
- Kd [2]: 37.7 nM
- Kd [6]: 518 nM
- Kd [3]: 11.2 nM
- Kd [4]: 0.0764 nM
- Kd [5]: 1.93 nM

B3: AF4H1/L1CDR3m (antibody, V domains shown)
VH: QVQLVESGGGVVQPGTSLRLSCEASGFTSSAYAMHWVRQAPGKGLEWVAVITFDGGYQYYADSVKGRFTISRDISRNTLHLHMNSLRAEDTAVYYCARDPLTKLLPFDWVSGGYFDYWGQGTLVTVSS
VL: SYELTQPPSVSVSPGQTASITCSGDKLGDKYACWYQQKPGQSPVLVIYQDSKRPSGIPERFSGSNSGNTATLTISGTQAMDEADYYCQQYGSSFTFGTGTKVTVL
notes: IgG; copies: 2 + 2
- binding result (H3 HA (strain not given) [7]): no binding

B4: AF4H1K1 Fab (Fab, V domains shown)
VH: QVQLVESGGGVVQPGTSLRLSCEASGFTSSAYAMHWVRQAPGKGLEWVAVITFDGGYQYYADSVKGRFTISRDISRNTLHLHMNSLRAEDTAVYYCARDPLTKLLPFDWVSGGYFDYWGQGTLVTVSS
VL: not shown
notes: also called AF4H1K1 Fab fragment
- binding result [8]: binds
- binding result (H3 HA (strain not given) [9]): binds

From PMC6465249 (Cell Discovery, 2019)
